{"source": "paper PMC8765430", "about": "“MdaB and NfrA, Two Novel Reductases Important in the Survival and Persistence of the Major Enteropathogen Campylobacter jejuni” (Journal of Bacteriology, 2022)", "molecules": {"B1": {"name": "rrpAprobe (dsDNA)", "DNA 1": "GCATAATATCATTTTCAATACAGAAAATAAAGTAATATACTATACTAAAGGAATGTTAAATGA", "DNA 2": "TCATTTAACATTCCTTTAGTATAGTATATTACTTTATTTTCTGTATTGAAAATGATATTATGC"}, "B2": {"name": "rrpA (-1) (dsDNA)", "DNA 1": "GCATAATATCATTTTCAATACAGAAAATAAAGTAATATCGAGCACTAAAGGAATGTTAAATGA", "DNA 2": "TCATTTAACATTCCTTTAGTGCTCGATATTACTTTATTTTCTGTATTGAAAATGATATTATGC"}, "B3": {"name": "rrpA (-2) (dsDNA)", "DNA 1": "GCATAATCGAGCTTTCAATACAGAAAATAAAGTAATATCGAGCACTAAAGGAATGTTAAATGA", "DNA 2": "TCATTTAACATTCCTTTAGTGCTCGATATTACTTTATTTTCTGTATTGAAAGCTCGATTATGC"}, "B4": {"name": "rrpB (-2) (dsDNA)", "DNA 1": "TTAAAAAATATGCGGATCTTTTAAAAAATAAGGATCGGATCTGAAAAAATAT", "DNA 2": "ATATTTTTTCAGATCCGATCCTTATTTTTTAAAAGATCCGCATATTTTTTAA"}, "B5": {"name": "rrpBprobe (rrpB WT) (dsDNA)", "DNA 1": "TTAAAAAATATGTTATAATTTTAAAAAATAAGGATTTATAATGAAAAAATAT", "DNA 2": "ATATTTTTTCATTATAAATCCTTATTTTTTAAAATTATAACATATTTTTTAA"}, "B6": {"name": "rrpB (-1) (dsDNA)", "DNA 1": "TTAAAAAATATGTTATAATTTTAAAAAATAAGGATCGGATCTGAAAAAATAT", "DNA 2": "ATATTTTTTCAGATCCGATCCTTATTTTTTAAAATTATAACATATTTTTTAA"}, "B7": {"name": "rrpA WT (Fig. S1) (dsDNA)", "DNA 1": "GCATATAATATCATTTTCAATACAGAAAATAAAGTAATATACTATACTAAAGGAATGTTAAATGA", "DNA 2": "TCATTTAACATTCCTTTAGTATAGTATATTACTTTATTTTCTGTATTGAAAATGATATTATATGC"}, "B8": {"name": "nfrAprobe (dsDNA)", "DNA 1": "TAGATCTTTAATATTTATATAAATGATGATTTTTAGTTCATCTATAATAAAATATTATATCA", "DNA 2": "TGATATAATATTTTATTATAGATGAACTAAAAATCATCATTTATATAAATATTAAAGATCTA"}, "B9": {"name": "mdaBprobe (dsDNA)", "DNA 1": "AAATTTAAAATACTATGTTAATATTGAATCGTATTATAGTAAAAGTT", "DNA 2": "AACTTTTACTATAATACGATTCAATATTAACATAGTATTTTAAATTT"}}, "key": {"[1]": {"target": "T1, NfrA (NfrAhis6) (Campylobacter jejuni, UniProt Q0P871)", "T1 construct": "gene Cj1555c; recombinant His6-tagged (pET21a+), E. coli BL21(DE3), Ni-NTA", "T1 sequence (Q0P871 entry or part of it)": "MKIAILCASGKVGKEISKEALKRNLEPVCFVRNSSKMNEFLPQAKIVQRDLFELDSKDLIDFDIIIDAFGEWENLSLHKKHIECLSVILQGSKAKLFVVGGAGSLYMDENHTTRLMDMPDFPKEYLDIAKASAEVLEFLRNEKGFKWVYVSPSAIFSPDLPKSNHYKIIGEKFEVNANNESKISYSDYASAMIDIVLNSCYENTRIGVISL", "experiment": "NADPH oxidation at […] nm", "assay_type": "biochemical", "settings": "riboflavin as acceptor; pH ~7.5"}, "[2]": {"target": "T2, MdaB (MdaBhis6) (Campylobacter jejuni, UniProt Q0P880)", "T2 construct": "gene Cj1545c; recombinant His6-tagged (pET21a+), E. coli BL21(DE3), Ni-NTA", "T2 sequence (Q0P880 entry or part of it)": "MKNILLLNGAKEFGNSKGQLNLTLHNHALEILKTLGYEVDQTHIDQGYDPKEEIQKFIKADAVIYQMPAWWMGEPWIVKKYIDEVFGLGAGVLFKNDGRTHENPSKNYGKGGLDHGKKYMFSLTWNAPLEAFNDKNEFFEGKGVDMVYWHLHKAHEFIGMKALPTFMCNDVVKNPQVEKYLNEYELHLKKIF", "experiment": "NADPH oxidation at […] nm", "assay_type": "biochemical", "settings": "0.2 mM quinone substrates; 200 μM NADPH; 50 mM Tris-HCl, 100 mM NaCl, 10% DMSO; pH ~7.5; 37°C; anaerobic"}, "[3]": {"target": "T3, RrpA (Campylobacter jejuni, UniProt Q0P879 1-115)", "T3 sequence": "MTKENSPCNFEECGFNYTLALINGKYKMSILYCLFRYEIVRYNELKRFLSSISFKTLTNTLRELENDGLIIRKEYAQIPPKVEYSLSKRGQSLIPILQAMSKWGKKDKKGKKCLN", "experiment": "EMSA; 0.05 ug protein, 50 nM DNA; EMSA: Odyssey infrared EMSA kit, 50 nM probe, 20 ul, 6% gel at 4 C. Footprinting: 10 mM Tris-HCl pH 8.5, 30 mM K-glutamate, 1 mM DTT, 5 mM Mg acetate, 2 mM CaCl2, 0.125 mg/ml BSA, 30% glycerol, 25 C", "settings": "protein: recombinant; tags: C-terminal His6 (pET21a); chain copies: 2; label: 5' IRDye 800"}, "[4]": {"target": "T3, RrpA", "experiment": "EMSA; EMSA: Odyssey infrared EMSA kit, 50 nM probe, 20 ul, 6% gel at 4 C. Footprinting: 10 mM Tris-HCl pH 8.5, 30 mM K-glutamate, 1 mM DTT, 5 mM Mg acetate, 2 mM CaCl2, 0.125 mg/ml BSA, 30% glycerol, 25 C", "settings": "protein: recombinant; tags: C-terminal His6 (pET21a); chain copies: 2"}, "[5]": {"target": "T4, RrpB (Campylobacter jejuni, UniProt Q0P870 1-110)", "T4 sequence": "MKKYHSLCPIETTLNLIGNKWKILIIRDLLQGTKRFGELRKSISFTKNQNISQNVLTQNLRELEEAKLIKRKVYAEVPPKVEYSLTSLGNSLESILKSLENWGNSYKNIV", "experiment": "EMSA; EMSA: Odyssey infrared EMSA kit, 50 nM probe, 20 ul, 6% gel at 4 C. Footprinting: 10 mM Tris-HCl pH 8.5, 30 mM K-glutamate, 1 mM DTT, 5 mM Mg acetate, 2 mM CaCl2, 0.125 mg/ml BSA, 30% glycerol, 25 C", "settings": "protein: recombinant; tags: C-terminal His6 (pET21a); chain copies: 2"}, "[6]": {"target": "T4, RrpB", "experiment": "EMSA; DTT (higher complex); EMSA: Odyssey infrared EMSA kit, 50 nM probe, 20 ul, 6% gel at 4 C. Footprinting: 10 mM Tris-HCl pH 8.5, 30 mM K-glutamate, 1 mM DTT, 5 mM Mg acetate, 2 mM CaCl2, 0.125 mg/ml BSA, 30% glycerol, 25 C", "settings": "protein: recombinant; tags: C-terminal His6 (pET21a); chain copies: 2; label: 5' IRDye 800"}}}
{"molecule": "NC(=O)C1=CN([C@@H]2O[C@H](COP(=O)(O)OP(=O)(O)OC[C@H]3O[C@@H](n4cnc5c(N)ncnc54)[C@H](OP(=O)(O)O)[C@@H]3O)[C@@H](O)[C@H]2O)C=CC1", "note": "[NADPH]", "values": [{"measurement": "specific activity", "setting": "[1]", "result": "This was indicative of NfrA’s preference for NADPH over NADH"}, {"measurement": "specific activity", "setting": "[2]", "result": "reductase activity of MdaB was determined by monitoring the oxidation of NADPH"}]}
{"molecule": "B1", "values": [{"measurement": "binding result", "setting": "[3]", "result": "binds"}]}
{"molecule": "B2", "values": [{"measurement": "binding result", "setting": "[4]", "result": "binds"}]}
{"molecule": "B3", "values": [{"measurement": "binding result", "setting": "[4]", "result": "no binding"}]}
{"molecule": "B4", "values": [{"measurement": "binding result", "setting": "[5]", "result": "no binding"}]}
{"molecule": "B5", "values": [{"measurement": "binding result", "setting": "[6]", "result": "binds"}]}
{"molecule": "B6", "values": [{"measurement": "binding result", "setting": "[5]", "result": "binds"}]}
{"molecule": "B7", "values": [{"measurement": "binding result", "setting": "[4]", "result": "binds"}]}
{"molecule": "B8", "values": [{"measurement": "binding result", "setting": "[6]", "result": "binds"}]}
{"molecule": "B9", "values": [{"measurement": "binding result", "setting": "[3]", "result": "binds"}]}
